Experimental data from the RNAGym collection of RNA variant scans (doi:10.1073/pnas.2313332121).
This sample holds only a part of the variants without activity.

B1: TPR 5TU (parent)
chain: GGAUCUUCUCGAUCUAACAAAAAAGACAAAUCUGCCACAAAGCUUGAGAGCAUCUUCGGAUGCAGAGGCGGCAGCCUUCGGUGGCGCGAUAGCGCCAACGUUCUCAACUAUGACACGCAAAACGCGUGCUCCGUUGAAUGGAGUUUAUCAUG

Variants of: B1
Assay: polymerase ribozyme fitness, log enrichment relative to wild type (log ratio); higher = more active; in vitro selection for triplet polymerase activity
In short: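 For each subunit of a heterodimeric triplet polymerase ribozyme, a mutant library was built by PCR and transcribed, then taken through a single in vitro selection round in triplicate. Selection involved annealing to a biotinylated primer, the partner subunit and triplets, incubation frozen at −7 °C, gel excision of extended constructs, capture on streptavidin beads and RT-PCR. Genotypes were retained after Illumina sequencing of inputs and outputs only with ≥10 input reads and ≥1 read in each output. Fitness is defined as the logarithm of a genotype's enrichment relative to wild-type enrichment, using inverse-variance-weighted averages across replicates, with the logarithm taken to base 2.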

First: GGAUCUUCUCGAUCUAACAAAAAAGACAAAUCUGCCACAAAGCUUGAGAGCAUCUUUGGAUGCAGAGGCGGCAGUCUUCGGUGGCGCGAUAGCGCCAACGUUCUCAUCUAUGACACGCAAAACGCGCGCUCCGUUGAAUGGAGUUUAUCGUG [C57U C75U A107U U127C A150G]
Second: GGAUCUUCUCGAUCUAACAAAAAAGACAAAUCUGCCACAAAGCUUGAGAGCAUCUUUGGAUGCAGAGGCGGCAGCCUUCGGUGGCGCGAUAGCGCCAACGUUCUCAACUAUGAGACGCAAAACGCGUGCUCCGUUGAAUGGAGUUUAUCAUG [C57U C114G]
The “polymerase ribozyme fitness (log ratio)” value of the first is lower: no more than -4.2 for the first, -2.73 for the second.

First: GGAUCUUCUCGAUCUAACAAAAAAGACAAAUCUGCCACAAAGCUUGAGAGCAUCUUUGGAUGCAGAGGCGGCAGCCUUCGGUGGCGCGAUAGCGCCAACGUUCUAAACUAUGACACGCAAAACGCGUGCUCCGUUGAAUGGAGUUUAUCAUG [C57U C105A]
Second: GGAUCUUCUCGAUCUAACAAAAAAGACAAAUCUGCCACAAAGCUUGAGAGCAUCUUUGGAUGCAGAGGCGGCAGCCUUCGGUGGCGCGAUAGCGCCAACGUUCUGAACUAUGACACGCAAAACGCGUGCUCCGUUGAAUGGAGUUUAUCAUG [C57U C105G]
The “polymerase ribozyme fitness (log ratio)” value of the first is lower: -0.73 for the first, -0.3 for the second.

Compared with GGAUCUUCUCGAUCUAACAAAAAAGACAAAUCUGCCACAAAGCUUGAGAGCAUCUUUGGAUGCAGAGGCGGCAGCCUUCGGUGGGGCGAUAGCGCCAACGUUCUCAACUAUGACACGCAAAACGCGUGCUCCGUUGAAUGGAGUUUAUCAUG [C57U C85G], GGAUCUUCUCGAUCUAACAAAAAAGACAAAUCUGCCACAAAGCUUGAGAGCAUCUUUGGAUGCAGAGGCGGCAGCCUUCGGUGGAGCGAUAGCGCCAACUUUCUCAACUAUGACACGCAAAACGCGUGCUCCGUUGAGUGGAGUUUAUCAUG [C57U C85A G100U A138G] is lower in “polymerase ribozyme fitness (log ratio)” value: -2.48 for the first, no more than -4.2 for the second.

First: GGAUCUUCUCGAUCUAACAAAAAAGACAAAUCUGCCACAAAGCUUGAGAGCAUCUUUGGAUGCAGAGGCGGCAGCCUUCGGUGGAGCGAUAGCGCCACCGUUCUCAACUAUGACACGCAAAACGCGUGCUCCGUUGAAUGGAGUUUAUCAUG [C57U C85A A98C]
Second: GGAUCUUCUCGAUCUAACAAAAAAGACAAAUCUGCCACAAAGCUUGAGAGCAUCUUUGGAUGCAGAGGCGGCAGCCUUCGGUGGCGUGAUAGCGCCAACGUUCUCAACUAUGCCACGCGAAACGCGUGCUCCGUUGAAUGGAGUUUAUCAUG [C57U C87U A113C A119G]
The “polymerase ribozyme fitness (log ratio)” value of the first is higher: -1.23 for the first, -3.09 for the second.

First: GGAUCUUCUCGAUCUAACAAAAAAGACAAAUCUGCCACAAAGCUUGAGAGCAUCUUUGGAUGUAUAGGCGGCAGCCUUCGGUGGCGCAAUAGCGCCAACGUUCUCAACUAUGACACGCAAAACGCGUGCUCCGUUGAUUGGAGUUUAUCAUG [C57U C63U G65U G88A A138U]
Second: GGAUCUUCUCGAUCUAACAAAAAAGACAAAUCUGCCACAAAGCUUGAGAGCAUCUUUGGAUGCAGAGGCGGCAGUCUUCGGUGGCGCGAUAGCGCCAACGUUCUCAACUAUGACACGCAAAACGCGUGCUCCGUUGAAUGGAGUUUAUCAUG [C57U C75U]
The “polymerase ribozyme fitness (log ratio)” value of the first is lower: no more than -4.2 for the first, 0.237 for the second.

First: GGAUCUUCUCGAUCUAACAAAAAAGACAAAUCUGCCACAAAGCUUGAGAGCAUCUUUGGAUGCAGAGGCGGCAGGCUUCGGUGGCGCGAUAGCGCCAACGUUCUCAACUAUGACACGCAAAACGCGUGCUCCGUUGAAUGGAGUUUAUCAUG [C57U C75G]
Second: GGAUCUUCUCGAUCUAACAAAAAAGACAAAUCUGCCACAAAGCUUGAGAGCAUCUUUGGAUGCAGAGGCGGCAGCCUUCGGUGGCGCGAUAGUGCCAACGUUCUCAACUAUGACCCGCAAAACGCGUGCUCCGUUGAAUGGCGUUUUUCAUG [C57U C93U A115C A142C A147U]
The “polymerase ribozyme fitness (log ratio)” value of the first is higher: -3.63 for the first, no more than -4.2 for the second.

First: GGAUCUUCUCGAUCUAACAAAAAAGACAAAUCUGCCACAAAGCUUGAGAGCAUCUUUGGAUGCAGAGGCGGCAGCCUUCGGUGGUGCGCUAGCGCCAACGUUCUCAACUAUGACACGCAAAACGCGAGCUCCGUUGAAUGGAGUUUAUCAUG [C57U C85U A89C U127A]
Second: GGAUCUUCUCGAUCUAACAAAAAAGACAAAUCUGCCACAAAGCUUGAGAGCAUCUUUGGAUGCAGAGGGGGCAGCCUUCGGUGAGGCGAUAGCGCCAACGUUCUCAACUAUGACACGCAAAACGCGUGCUCCGUUGAAUGGAGUUUAUCAUG [C57U C69G G84A C85G]
The “polymerase ribozyme fitness (log ratio)” value of the first is higher: -4.18 for the first, no more than -4.2 for the second.

Going from GGAUCUUCUCGAUCUAACAAAAAAGACAAAUCUGCCACAAAGCUUGAGAGCAUCUUUGGAUGCAGAGGCGGCAGCCUUCGGUGGCGCGAUAGAGCCAACGUUCUCAACUAUGACACGCAAAACGCGUGCUCCGUUGAAUGGAGUUUAUCAUG [C57U C93A] to GGAUCUUCUCGAUCUAACAAAAAAGACAAAUCUGCCACAAAGCUUGAGAGCAUCUUUGGAUGCAGAGGCGGCAGCCUUCGGUGGCGCGAUAGGGCCAACGUUCUCAACUAUGACACGCAAAACGCGUGCUCCGUUGAAUGGAGUUUAUCAUG [C57U C93G], the “polymerase ribozyme fitness (log ratio)” value falls from -1.61 to -3.36.

First: GGAUCUUCUCGAUCUAACAAAAAAGACAAAUCUGCCACAAAGCUUGAGAGCAUCUUUGGAUGCAGAGGCGGCAGCCUUCGGUGGCGCGAUAGCGCCAACGUUCUCAACUAUGACAGGCAAAACGCGUGCUCCGUUGAAUGGAGUUUAUCAUG [C57U C116G]
Second: GGAUCUUCUCGAUCUAACAAAAAAGACAAAUCUGCCACAAAGCUUGAGAGCAUCUUUGGAUGCAGAGGCGGCAGCAUUCGGUGGCGCGAUAGUGCCAACGUUCUCAACUAUGACAAGCAAAACGCGUGCUCCGUUGAAUGGAGUUUAUCAGG [C57U C76A C93U C116A U151G]
The “polymerase ribozyme fitness (log ratio)” value of the first is higher: 0.474 for the first, no more than -4.2 for the second.

In the case of GGAUCUUCUCGAUCUAACAAAAAAGACAAAUCUGCCACAAAGCUUGAGAGCAUCUUUGGAUGCAGAGGCGGCAGCCUUCGGUGGCGUGAUAGCGCCAACGUUCUCAACUAUGACAUGUCAAACGCGUGCUCCGUUAAAUGGAGUUUAUCAUG [C57U C87U C116U C118U A119C G136A], the “polymerase ribozyme fitness (log ratio)” value is reported as 0.419.
